In article PMC4453016, “Novel Bifunctional Cyclic Chelator for ^89Zr Labeling–Radiolabeling and Targeting Properties of RGD Conjugates” (Molecular Pharmaceutics, 2015):
Where two headings read alike, the source gives them in different places. Each block holds one molecule with its values, some of them ahead of it.

Tests used:
[1] = tested on: αvβ3 integrin positive M21 and αvβ3 integrin negative M21-L tumor xenografts; parameters: species or system BALB/c nude mice; conditions: mouse, in vivo, iv, 1 h
Experimental: (§1) For the evaluation of biodistribution, four healthy female BALB/c mice (Charles River Laboratories, Sulzfeld, GER) were intravenously injected with [^89Zr]TAFC (∼1.5 MBq/mouse, ∼4 μg of precursor) into the tail vein and sacrificed at 6 h postinjection (p.i.). For the evaluation of tumor uptake of [^89Zr]FSC(succ-RGD)3 female, athymic BALB/c nude mice (Charles River Laboratories) were used. For the induction of tumor xenografts mice were injected subcutaneously with 5 × 10^6 αvβ3 integrin positive M21 cells into the right hind limb and with 5 × 10^6 αvβ3 integrin negative M21-L cells (negative control) into the left hind limb of the same mouse (n = 4). The tumors were allowed to grow until they had reached a volume of 0.3 to 0.6 cm^3. On the day of the experiment [^89Zr]FSC(succ-RGD)3 (∼0.5 MBq/mouse, ∼0.5 μg of peptide) was intravenously injected in the lateral tail vein. Mice were sacrificed by cervical dislocation at 1, 2, and 4 h after injection. Organs (spleen, pancreas, stomach, intestine, kidney, liver, heart, and lung), blood, muscle tissue, bone, and tumors were dissected and weighted. As a comparison, four tumor-bearing mice were intravenously injected in the tail vein with [^68Ga]FSC(succ-RGD)3 (∼0.5 MBq/mouse, ∼0.5 μg of precursor) and sacrificed at 1 h p.i. Activity of the different samples was measured in the gamma counter. Results were expressed as percentage of injected dose per gram tissue (% ID/g).

[2] = tested on: M21 cells (αvβ3 integrin positive); assay: Internalization assay; format: cell-based, human; conditions: 37 °C, 90 min, total series
Experimental: M21 cells (αvβ3 integrin positive) were diluted with RPMI 1640 (Gibco, Invitrogen Corporation, Paisley, UK) containing 1% glutamine (m/v), 1% bovine serum albumin (BSA) (m/v), CaCl2 (1 mM), MgCl2 (1 mM), and MnCl2 (10 mM) to a concentration of 2.0 × 10^6 cells/mL. Aliquots of 1 mL cell solution were transferred to Eppendorf tubes for incubation at 37 °C for 1 h. After addition of [^89Zr]FSC(RGDfE)3, [^89Zr]FSC(succ-RGD)3, or [^89Zr]FSC(Mal-RGD)3 (approximately 1.5 × 10^6 cpm), the cells were incubated in triplicates with either PBS with 0.5% BSA (150 μL, total series) or with 10 μM c(RGDyV) in PBS/0.5% BSA (150 μL, nonspecific series) at 37 °C for 90 min. After the incubation time the tubes were centrifuged, and incubation was stopped by removal of the medium. Then the cells were washed twice with ice-cold TRIS-buffered saline. Subsequently, the cells were incubated two times in acid wash buffer (20 mM acetate buffer, pH 4.5) at 37 °C for 5 min. Then the tubes were centrifuged, and the supernatant was collected in plastic vials (membrane bound activity). In a last step the cells were lysed by addition of 2 M NaOH, and the radioactivity associated with cells was collected in plastic vials (internalized radioligand fraction). Protein content in the NaOH fraction was determined using a spectrometric method (Bradford assay). The internalized activity was calculated and expressed as percentage of total activity per milligram protein.

[3] = pH 7.4
[4] = parameters: species or system BALB/c nude mice; conditions: mouse, in vivo, iv
Experimental: as §1

[5] = Stability assay in 1000-fold molar excess of EDTA solution (ITLC); format: physicochemical; conditions: competitor EDTA 1000-fold excess, 37 °C, n = 3
Experimental: Determination of the stability of [^89Zr]DFO, [^89Zr]TAFC, and [^89Zr]FSC-RGD conjugates was carried out by incubating the radioligands in PBS, 1000-fold molar excess of EDTA solution with different pH (pH 7 and pH 6; radioligand vs EDTA: 25 μM vs 25 mM) as well as in human serum for 7 days at 37 °C, respectively. At selected time points three aliquots of PBS and EDTA solution were analyzed directly via ITLC, while the three serum aliquots were mixed with 500 μL of CH3CN, vortexed, and centrifuged at 20,000 rcf for 2 min prior to analysis.

[6] = tested on: αvβ3 integrin positive M21 and αvβ3 integrin negative M21-L tumor xenografts; format: in vivo, BALB/c nude mice; conditions: ~5 MBq/mouse i.v., monitoring period of 24 h
Experimental: MicroPET/CT imaging experiments were conducted on an Inveon microPET/CT scanner (Siemens Preclinical Solutions, Knoxville, USA). A group of four M21-tumor xenograft bearing BALB/c nude mice were administered with [^89Zr]FSC(succ-RGD)3 (∼5 MBq/mouse, ∼5 μg of peptide) via intravenous tail vein injection. MicroPET images were acquired under general anesthesia (isoflurane/O2) for 20 min. PET data for each mouse were recorded via static scans at 1, 4, and 24 h p.i. The microPET scans were reconstructed with Inveon Acquisition Workplace software (version 1.5; Siemens Preclinical Solutions), using a 3-dimensional fast maximum a posteriori algorithm with the following parameters: matrix, 256 × 256 × 161; pixel size, 0.4 × 0.4 × 0.8 mm; β-value of 1.5 mm resolution with uniform variance.

[7] = uptake in αvβ3 integrin positive M21 tumor

uptake in αvβ3 integrin negative M21-L tumors [1]: 1.10 ± 0.30 % ID/g
SMILES: C/C1=C/C(=O)N(O)CCC[C@H](NC(=O)CCC(=O)NCCCC[C@@H]2NC(=O)[C@@H](Cc3ccccc3)NC(=O)[C@H](CC(=O)O)NC(=O)CNC(=O)[C@H](CCCNC(=N)N)NC2=O)C(=O)OCC/C(C)=C\C(=O)N(O)CCC[C@H](NC(=O)CCC(=O)NCCCC[C@@H]2NC(=O)[C@@H](Cc3ccccc3)NC(=O)[C@H](CC(=O)O)NC(=O)CNC(=O)[C@H](CCCNC(=N)N)NC2=O)C(=O)OCC/C(C)=C\C(=O)N(O)CCC[C@H](NC(=O)CCC(=O)NCCCC[C@@H]2NC(=O)[C@@H](Cc3ccccc3)NC(=O)[C@H](CC(=O)O)NC(=O)CNC(=O)[C@H](CCCNC(=N)N)NC2=O)C(=O)OCC1 [[^68Ga]FSC(succ-RGD)3] [metal not drawn, reference compound]
blood activity [1]: 0.63 ± 0.26 % ID/g
uptake in the spleen [1]: 3.27 ± 0.64 % ID/g

SMILES: C/C1=C/C(=O)N(O)CCC[C@H](NC(=O)CCN2C(=O)CC(SCCOCCOCCOCCOCCC(=O)NCCCC[C@@H]3NC(=O)[C@@H](Cc4ccccc4)NC(=O)[C@H](CC(=O)O)NC(=O)CNC(=O)[C@H](CCCNC(=N)N)NC3=O)C2=O)C(=O)OCC/C(C)=C\C(=O)N(O)CCC[C@H](NC(=O)CCN2C(=O)CC(SCCOCCOCCOCCOCCC(=O)NCCCC[C@@H]3NC(=O)[C@@H](Cc4ccccc4)NC(=O)[C@H](CC(=O)O)NC(=O)CNC(=O)[C@H](CCCNC(=N)N)NC3=O)C2=O)C(=O)OCC/C(C)=C\C(=O)N(O)CCC[C@H](NC(=O)CCN2C(=O)CC(SCCOCCOCCOCCOCCC(=O)NCCCC[C@@H]3NC(=O)[C@@H](Cc4ccccc4)NC(=O)[C@H](CC(=O)O)NC(=O)CNC(=O)[C@H](CCCNC(=N)N)NC3=O)C2=O)C(=O)OCC1 (stereo partly shown) [[^89Zr]FSC(Mal-RGD)3, metal not drawn]
internalized activity, % of total activity per milligram protein [2]: 1.6 ± 0.1 % cpm/mg
logD [3]: -2.9

SMILES: C/C1=C/C(=O)N(O)CCC[C@H](NC(=O)CC[C@@H]2NC(=O)[C@@H](Cc3ccccc3)NC(=O)[C@H](CC(=O)O)NC(=O)CNC(=O)[C@H](CCCNC(=N)N)NC2=O)C(=O)OCC/C(C)=C\C(=O)N(O)CCC[C@H](NC(=O)CC[C@@H]2NC(=O)[C@@H](Cc3ccccc3)NC(=O)[C@H](CC(=O)O)NC(=O)CNC(=O)[C@H](CCCNC(=N)N)NC2=O)C(=O)OCC/C(C)=C\C(=O)N(O)CCC[C@H](NC(=O)CC[C@@H]2NC(=O)[C@@H](Cc3ccccc3)NC(=O)[C@H](CC(=O)O)NC(=O)CNC(=O)[C@H](CCCNC(=N)N)NC2=O)C(=O)OCC1 [[^89Zr]FSC(RGDfE)3, metal not drawn]
internalized activity, % of total activity per milligram protein [2]: 2.3 ± 0.3 % cpm/mg
logD [3]: -3

tissue uptake at 4 h ([4]; uptake in αvβ3 integrin negative M21-L tumors): 0.5 %ID/g
tissue uptake at 1 h [4, 7]: 2.83 ± 0.6 %ID/g
tissue uptake at 2 h [4, 7]: 3.48 ± 0.45 %ID/g
tissue uptake at 4 h [4, 7]: 2.86 ± 0.3 %ID/g
SMILES: C/C1=C/C(=O)N(O)CCC[C@H](NC(=O)CCC(=O)NCCCC[C@@H]2NC(=O)[C@@H](Cc3ccccc3)NC(=O)[C@H](CC(=O)O)NC(=O)CNC(=O)[C@H](CCCNC(=N)N)NC2=O)C(=O)OCC/C(C)=C\C(=O)N(O)CCC[C@H](NC(=O)CCC(=O)NCCCC[C@@H]2NC(=O)[C@@H](Cc3ccccc3)NC(=O)[C@H](CC(=O)O)NC(=O)CNC(=O)[C@H](CCCNC(=N)N)NC2=O)C(=O)OCC/C(C)=C\C(=O)N(O)CCC[C@H](NC(=O)CCC(=O)NCCCC[C@@H]2NC(=O)[C@@H](Cc3ccccc3)NC(=O)[C@H](CC(=O)O)NC(=O)CNC(=O)[C@H](CCCNC(=N)N)NC2=O)C(=O)OCC1 [[^89Zr]FSC(succ-RGD)3, metal not drawn]
tissue uptake at 1 h ([4]; activity in kidneys): 6.42 ± 0.72 %ID/g
tissue uptake at 2 h ([4]; activity in kidneys): 5.77 ± 0.2 %ID/g
tissue uptake at 4 h ([4]; activity in kidneys): 5.26 ± 0.9 %ID/g
tissue uptake at 1 h ([4]; activity in the bone): 0.71 ± 0.05 %ID/g
tissue uptake at 2 h ([4]; activity in the bone): 0.79 ± 0.28 %ID/g
tissue uptake at 4 h ([4]; activity in the bone): 0.73 ± 0.27 %ID/g
tissue uptake at 2 h ([4]; blood activity): 0.15 %ID/g
tissue uptake at 4 h ([4]; blood activity): 0.1 ± 0.01 %ID/g
tissue uptake at 1 h ([4]; uptake in the spleen): 1.78 ± 0.22 %ID/g
logD [3]: -2.9

SMILES: C/C1=C/C(=O)N(O)CCC[C@H](NC(=O)CCC(=O)NCCCC[C@@H]2NC(=O)[C@@H](Cc3ccccc3)NC(=O)[C@H](CC(=O)O)NC(=O)CNC(=O)[C@H](CCCNC(=N)N)NC2=O)C(=O)OCC/C(C)=C\C(=O)N(O)CCC[C@H](NC(=O)CCC(=O)NCCCC[C@@H]2NC(=O)[C@@H](Cc3ccccc3)NC(=O)[C@H](CC(=O)O)NC(=O)CNC(=O)[C@H](CCCNC(=N)N)NC2=O)C(=O)OCC/C(C)=C\C(=O)N(O)CCC[C@H](NC(=O)CCC(=O)NCCCC[C@@H]2NC(=O)[C@@H](Cc3ccccc3)NC(=O)[C@H](CC(=O)O)NC(=O)CNC(=O)[C@H](CCCNC(=N)N)NC2=O)C(=O)OCC1 [[^89Zr]FSC(succ-RGD)3] [metal not drawn]
internalized activity, % of total activity per milligram protein [2]: 2.1 ± 0.3 % cpm/mg
blood activity [1]: 0.16 ± 0.04 % ID/g
% intact starting species by incubation time ([5]; pH 7, 1 h): 98.2 ± 0.1%
% intact starting species by incubation time ([5]; pH 7, 4 h): 98.2 ± 0.1%
% intact starting species by incubation time ([5]; pH 7, 1 d): 96.5 ± 0.5%
% intact starting species by incubation time ([5]; pH 7, 3 d): 96.0 ± 0.4%
% intact starting species by incubation time ([5]; pH 7, 5 d): 94.5 ± 0.3%
% intact starting species by incubation time ([5]; pH 7, 7 d): 93.9 ± 0.7%
uptake in αvβ3 integrin negative M21-L tumors in microPET/CT [6]: no uptake
visualization of αvβ3 integrin positive M21 tumors in microPET/CT [6]: clearly visualized over the whole monitoring period of 24 h
